Test system: LSD1Δ1 (KDM1);CoRESTΔ1 (human;human)
Assay: HI-FI fluorescence quenching
Settings: 20 mM Tris-HCl pH 7.6, 50 mM NaCl, 5 mM DTT, 5% glycerol, 0.01% NP40, 0.01% CHAPS, 100 ug/ml BSA, 2 mM EDTA, room temperature, 15 min

In order of rising Kd:
1. 207 bp nucleosome 31N31, H3 A21C  3 nM
2. 181 bp nucleosome 18N18, H3 A21C  3.8 nM
3. 157 bp nucleosome 6N6, H3 A21C  17.6 nM
4. 147 bp nucleosome 1N1, H3 A21C  81 nM
5. 181 bp nucleosome 18N18, H3 K27C  100 nM
6. 185 bp nucleosome 20N20, H3 K27C  135 nM
7. 165 bp nucleosome 10N10, H3 K27C  205 nM
8. 177 bp nucleosome 16N16, H3 K27C  214 nM
9. 161 bp nucleosome 8N8, H3 K27C  232 nM
10. 159 bp nucleosome 7N7, H3 K27C  236 nM
11. 163 bp nucleosome 9N9, H3 K27C  237 nM
12. 207 bp nucleosome 31N31, H3 K27C  263 nM
13. 169 bp nucleosome 12N12, H3 K27C  282 nM
14. 161L nucleosome 15N1, H3 K27C  406 nM
15. 155 bp nucleosome 5N5, H3 K27C  419 nM
16. 157 bp nucleosome 6N6, H3 K27C  470 nM
17. 151 bp nucleosome 3N3, H3 K27C  716 nM
18. 151L nucleosome 5N1, H3 K27C  718 nM
19. 177L nucleosome 31N1, H3 K27C  769 nM
20. 147 bp nucleosome 1N1, H3 K27C  1640 nM
